Here are results for one molecule from article PMC5240998, “Identification and Characterization of Single-Chain Antibodies that Specifically Bind GI Noroviruses” (PLoS ONE, 2017).

For the experiment, the target named is T1, GI.1 norovirus (Norwalk virus) virus-like particles (Norwalk virus (norovirus GI.1), UniProt Q83884 1-530).
T1 construct: major capsid protein VP1 (ORF2) of Norwalk virus, genotype GI.1, assembled into virus-like particles; also called GI.1 VLPs; GI.1 VLP; copies: 180
T1 sequence: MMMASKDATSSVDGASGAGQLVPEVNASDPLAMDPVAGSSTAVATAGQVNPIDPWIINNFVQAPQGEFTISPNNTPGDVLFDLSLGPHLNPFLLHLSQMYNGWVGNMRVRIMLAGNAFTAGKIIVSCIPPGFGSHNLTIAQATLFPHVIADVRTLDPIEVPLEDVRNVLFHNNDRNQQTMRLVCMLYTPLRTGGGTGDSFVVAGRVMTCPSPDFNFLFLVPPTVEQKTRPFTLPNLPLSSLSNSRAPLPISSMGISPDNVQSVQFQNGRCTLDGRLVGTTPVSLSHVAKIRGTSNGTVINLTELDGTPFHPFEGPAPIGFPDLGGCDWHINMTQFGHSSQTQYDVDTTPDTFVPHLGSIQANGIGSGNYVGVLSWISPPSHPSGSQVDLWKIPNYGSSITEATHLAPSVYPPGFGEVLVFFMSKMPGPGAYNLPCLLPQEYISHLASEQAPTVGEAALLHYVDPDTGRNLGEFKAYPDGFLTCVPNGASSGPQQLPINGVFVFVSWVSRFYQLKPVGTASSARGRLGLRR
The experiment can be described thus: ELISA; phage ELISA: VLPs, P-domain, S-domain (CT303) or BSA coated directly on the plate (VLPs 5 ug/mL in PBS); 5 × 10^10 cfu phage per well in 1% MPBS, 2 h RT; detected with anti-M13 HRP; signal as ratio to M13KE phage. The following applies: both partners purified. Background: An ELISA detects its analyte on a solid surface through an enzyme-linked reagent.

B1: NV-N-R5-1 phage-displayed 12-mer peptide (peptide)
peptide: LPSWYLAYQKII
notes: source: first reported by Rogers et al [18]
In the case of B1, the binding result is listed as “binds”.
